# Patent publication US20220251214A1 (JN BIOSCIENCES, published 2022)
# T1: human OX40 on the cell surface (JD/OX40 cells; OX40-expressing T cells) (human, UniProt P43489 29-277)
# T1 sequence: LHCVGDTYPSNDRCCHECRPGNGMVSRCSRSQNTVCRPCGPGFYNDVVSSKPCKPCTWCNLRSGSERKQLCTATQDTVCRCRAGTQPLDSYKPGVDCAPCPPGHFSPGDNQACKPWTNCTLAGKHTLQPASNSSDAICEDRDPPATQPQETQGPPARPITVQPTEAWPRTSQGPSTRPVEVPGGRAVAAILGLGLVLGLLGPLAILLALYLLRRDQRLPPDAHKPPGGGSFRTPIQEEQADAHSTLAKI
# T2: human GITR (human, UniProt Q9Y5U5 26-161, limits assumed)
# T2 construct: also called TNFRSF18; CD357
# T2 sequence: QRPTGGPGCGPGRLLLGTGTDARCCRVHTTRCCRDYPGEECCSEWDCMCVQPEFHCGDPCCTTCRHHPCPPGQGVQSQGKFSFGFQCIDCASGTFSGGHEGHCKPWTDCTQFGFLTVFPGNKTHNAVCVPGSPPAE
# T3: human GITR on the cell surface (JD/GITR cells; GITR-expressing T cells) (human, UniProt Q9Y5U5 26-241)
# T3 sequence: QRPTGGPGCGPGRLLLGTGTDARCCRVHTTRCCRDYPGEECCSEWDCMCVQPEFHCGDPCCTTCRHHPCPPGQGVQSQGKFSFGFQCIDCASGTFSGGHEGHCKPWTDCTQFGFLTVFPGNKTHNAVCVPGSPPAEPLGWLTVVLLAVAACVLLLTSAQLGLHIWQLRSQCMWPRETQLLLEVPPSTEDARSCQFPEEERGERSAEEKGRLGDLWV
# B1: BS841 (bispecific antibody, human IgG1, kappa, L234A L235A)
# heavy: not shown
# light: DIQLTQSPSFLSASVGDRVTITCSASSSVNYMHWFQQKPGKAPKLWIYSTSNLASGVPSRFSGSGSGTEFTLTISSLQPEDFATYYCQQRSSYPLTFGGGTKVEIKRTVAAPSVFIFPPSDEQLKSGTASVVCLLNNFYPREAKVQWKVDNALQSGNSQESVTEQDSKDSTYSLSSTLTLSKADYEKHKVYACEVTHQGLSSPVTKSFNRGEC
# B2: HuOHX14DS-IgG1.AA (antibody, V domains shown)
# VH: QVQLVQSGAEVKKPGSSVKVSCKASGYTFTSYIMHWVRQAPGQGLEWIGYINPYNSGTKYNEKFKGRVTITSDKSTSTAYMELSSLRSEDTAVYYCAHYYGSTFTMDYWGQGTTVTVSS
# VL: DIQMTQSPSSLSASVGDRVTITCRASQDIRTYLNWYQQKPGKVPKLLIYYTSRLHSGVPSRFSGSGSGTDYTLTISSLQPEDVATYYCQQGNTLPWTFGGGTKVEIKR
# B3: BS853 (bispecific antibody, human IgG1, kappa, L234A L235A)
# heavy: not shown
# light: EIVLTQSPATLSLSPGERATLSCSASSSVSYMHWYQQKPGQAPRPWIYDTSNLASGFPARFSGSGSGTDFTLTISSLEPEDFAVYYCHQRSSYPWTFGGGTKVEIKRTVAAPSVFIFPPSDEQLKSGTASVVCLLNNFYPREAKVQWKVDNALQSGNSQESVTEQDSKDSTYSLSSTLTLSKADYEKHKVYACEVTHQGLSSPVTKSFNRGEC
# notes: Transiently expressed in HEK293 cells; Cysteines at position 44 of VH and 100 of VL of the anti-GITR scFv; also called modified bispecific antibody encoded in pBS853; BS809 with disulfide-linked anti-GITR scFv
# B4: BS813 (bispecific antibody, human IgG1, kappa, L234A L235A)
# heavy: not shown
# light: B3 light
# B5: BS809 (bispecific antibody, human IgG1, kappa, L234A L235A)
# heavy: not shown
# light: B3 light
# B6: HuM195-IgG1 (antibody, V domains shown)
# VH: QVQLVQSGAEVKKPGSSVKVSCKASGYTFTDYNMHWVRQAPGQGLEWIGYIYPYNGGTGYNQKFKSKATITADESTNTAYMELSSLRSEDTAVYYCARGRPAMDYWGQGTLVTVSS
# VL: DIQMTQSPSSLSASVGDRVTITCRASESVDNYGISFMNWFQQKPGGAPKLLIYAASNQGSGVPSRFSGSGSGTDFTLTISSLQPDDFATYYCQQSKEVPWTFGQGTKVEIKR
# notes: Humanized IgG1/kappa, wild-type CH2; also called humanized anti-CD33 IgG1/kappa antibody; anti-CD33
# B7: HuPRO5-IgG1.AA (antibody, V domains shown)
# VH: QVQLQESGPGLVKPSQTLSLTCTVSGDSISSGYWNWIRQPPGKGLEYMGYISYTGSTYSNPSLKSRVTISRDTSKNQFSLKLSSVTAADTAVYYCARSQNWERAWFAYWGQGTLVTVSS
# VL: DIQMTQSPSSLSASVGDRVTITCSASSSVSYMHWYQQKPGKAPKLWIYDTSKLASGVPSRFSGSGSGTDFTLTISSLQPEDFATYYCFQGSGYPFTFGGGTKVEIKR
# notes: also called humanized PRO5; Anti-PD-L1 #5
# B8: HuPRO2-IgG1.AA (antibody, V domains shown)
# VH: VQLVQSGAEVKKPGSSVKVSCKASGYTFTSYGINWVRQAPGQGLEWIGYIYPGSGGPVYNQKFKGRVTLTADKSTSTAYMELSSLRSEDTAVYYCARENYRYWYFDVWGQGTTVTVSS
# VL: DIQLTQSPSFLSASVGDRVTITCSASSSVNYMHWFQQKPGKAPKLWIYSTSNLASGVPSRFSGSGSGTEFTLTISSLQPEDFATYYCQQRSSYPLTFGGGTKVEIKR
# notes: Humanized IgG1/kappa with L234A/L235A; also called humanized PRO2; Anti-PD-L1 #2
# B9: BS828 (bispecific antibody, human IgG1, kappa, L234A L235A)
# heavy: not shown
# light: DIQMTQSPSSLSASVGDRVTITCRASESVDNYGISFMNWFQQKPGGAPKLLIYAASNQGSGVPSRFSGSGSGTDFTLTISSLQPDDFATYYCQQSKEVPWTFGQGTKVEIKRTVAAPSVFIFPPSDEQLKSGTASVVCLLNNFYPREAKVQWKVDNALQSGNSQESVTEQDSKDSTYSLSSTLTLSKADYEKHKVYACEVTHQGLSSPVTKSFNRGEC
# B10: BS824 (bispecific antibody, human IgG1, kappa, L234A L235A)
# heavy: not shown
# light: B9 light
# B11: HuPRO1-IgG1.AA (antibody, V domains shown)
# VH: QVQLVQSGAEVKKPGSSVKVSCKASGFTFSSSYISWVRQAPGQGLEWIAWIYAGTGGTSYNQKFTGRATITVDESTSTAYMELSSLRSEDTAVYYCARHEGVYWYFDVWGQGTTVTVSS
# VL: EIVLTQSPATLSLSPGERATLSCSASSSVSYMHWYQQKPGQAPRPWIYDTSNLASGFPARFSGSGSGTDFTLTISSLEPEDFAVYYCHQRSSYPWTFGGGTKVEIKR
# notes: Humanized IgG1/kappa with L234A/L235A; Heavy chain built from VH and the constant exons of pHuM195-IgG1; also called humanized PRO1; anti-PD-L1
# B12: HuACS2-IgG1.AA (antibody, V domains shown)
# VH: QVQLVQSGAEVKKPGSSVKVSCKASGYTFTSYWLHWVRQAPGQGLEWIGRIDPNSGDTKYNEKFKSRATITVDKSTSTAYMELSSLRSEDTAVYYCARYYYGRSYFDYWGQGTTVTVSS
# VL: IVLTQSPATLSLSPGERATLSCSASSSVSYMHWYQQKPGQAPRRWIYDTSKLASGVPARFSGSGSGTDYTLTISSLEPEDFAVYYCQQWSSNPLTFGGGTKVEIKR
# Experiments:
# [1] = biological target: T1, human OX40 on the cell surface (JD/OX40 …); assay: cell-based or functional assay
# [2] = biological target: human PD-L1 on PD-L1-expressing cells of human PBMC cultures (human, UniProt Q9NZQ7 19-290); assay: cell-based or functional assay
# [3] = biological target: T2, human GITR; assay: ELISA
# [4] = biological target: T4, human PD-L1 (human, UniProt Q9NZQ7 19-238, limits assumed); assay: ELISA
# T4 construct: also called B7H1; CD274
# [5] = biological target: T5, recombinant human PD-L1 on the surface of NS0/PD-L1 cells (PD-L1-FLAG-GPI) (human, UniProt Q9NZQ7 19-238); assay: cell-based or functional assay
# [6] = biological target: T3, human GITR on the cell surface (JD/GITR …); assay: cell-based or functional assay
# [7] = biological target: T1, human OX40 on the cell surface (JD/OX40 …); assay: flow cytometry on JD/OX40 cells
# [8] = biological target: T5, recombinant human PD-L1 on the surface …; assay: flow cytometry; blocking of the binding of FITC-labeled hPD-1-Fc to NS0/PD-L1 cells
# Description: After washing with and suspending in FACS Buffer, cells were subjected to flow cytometry analysis.
# [9] = biological target: CD33 on the surface of HL-60 cells (human, UniProt P20138 18-364); assay: cell-based or functional assay
# [10] = biological target: CD40 on the surface of Ramos cells (human, UniProt P25942 21-277); assay: cell-based or functional assay
# [11] = biological target: recombinant human CD33 on the surface of NS0/CD33 cells (CD33-FLAG-GPI) (human); assay: cell-based or functional assay
# recombinant human CD33 on the surface of NS0/CD33 cells (CD33-FLAG-GPI) (human), sequence (chain, as listed by the source limits assumed): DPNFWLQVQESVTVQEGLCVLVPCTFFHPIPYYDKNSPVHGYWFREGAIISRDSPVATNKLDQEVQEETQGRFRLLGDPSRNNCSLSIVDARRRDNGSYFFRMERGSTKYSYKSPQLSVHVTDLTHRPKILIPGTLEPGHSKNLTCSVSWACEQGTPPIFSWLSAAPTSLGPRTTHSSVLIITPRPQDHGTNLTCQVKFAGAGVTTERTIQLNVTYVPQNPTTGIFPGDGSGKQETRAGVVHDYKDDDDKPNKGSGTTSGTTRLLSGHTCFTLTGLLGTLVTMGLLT
# T5 sequence (Q9NZQ7 other isoform, or with tags, fused parts or gaps limits assumed): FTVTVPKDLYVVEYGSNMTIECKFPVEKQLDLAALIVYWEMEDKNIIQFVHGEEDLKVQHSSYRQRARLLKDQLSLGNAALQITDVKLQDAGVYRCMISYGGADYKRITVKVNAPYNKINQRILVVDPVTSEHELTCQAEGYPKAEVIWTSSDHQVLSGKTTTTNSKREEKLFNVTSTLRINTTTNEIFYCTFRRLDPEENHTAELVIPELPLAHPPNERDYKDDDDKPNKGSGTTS
# human PD-L1 on PD-L1-expressing cells of human PBMC cultures, sequence (Q9NZQ7 19-290 limits assumed): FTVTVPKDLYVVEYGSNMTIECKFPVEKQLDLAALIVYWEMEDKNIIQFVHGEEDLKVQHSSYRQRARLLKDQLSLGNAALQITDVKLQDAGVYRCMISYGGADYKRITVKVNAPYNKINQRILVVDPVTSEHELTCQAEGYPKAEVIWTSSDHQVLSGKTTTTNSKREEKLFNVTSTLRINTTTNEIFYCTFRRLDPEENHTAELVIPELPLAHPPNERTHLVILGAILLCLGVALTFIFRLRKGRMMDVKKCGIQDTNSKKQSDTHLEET
# CD40 on the surface of Ramos cells, sequence (P25942 21-277 limits assumed): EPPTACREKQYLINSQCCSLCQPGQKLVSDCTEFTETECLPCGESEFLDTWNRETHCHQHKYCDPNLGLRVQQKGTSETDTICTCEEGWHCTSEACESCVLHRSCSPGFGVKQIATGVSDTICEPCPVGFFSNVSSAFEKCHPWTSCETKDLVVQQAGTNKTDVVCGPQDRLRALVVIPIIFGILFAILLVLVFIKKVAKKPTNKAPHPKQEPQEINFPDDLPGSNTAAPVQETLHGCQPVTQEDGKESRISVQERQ
# CD33 on the surface of HL-60 cells, sequence (P20138 18-364 limits assumed): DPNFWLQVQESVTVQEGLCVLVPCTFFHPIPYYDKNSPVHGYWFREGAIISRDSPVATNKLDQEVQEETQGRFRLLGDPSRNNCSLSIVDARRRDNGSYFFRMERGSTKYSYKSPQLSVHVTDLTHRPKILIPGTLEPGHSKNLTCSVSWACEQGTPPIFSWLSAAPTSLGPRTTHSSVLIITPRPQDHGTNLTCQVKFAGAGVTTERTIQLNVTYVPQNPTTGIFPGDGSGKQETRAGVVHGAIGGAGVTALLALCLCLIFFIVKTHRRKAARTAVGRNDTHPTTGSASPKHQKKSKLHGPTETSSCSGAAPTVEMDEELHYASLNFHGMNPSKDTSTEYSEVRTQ
# T4 sequence (Q9NZQ7 19-238 limits assumed): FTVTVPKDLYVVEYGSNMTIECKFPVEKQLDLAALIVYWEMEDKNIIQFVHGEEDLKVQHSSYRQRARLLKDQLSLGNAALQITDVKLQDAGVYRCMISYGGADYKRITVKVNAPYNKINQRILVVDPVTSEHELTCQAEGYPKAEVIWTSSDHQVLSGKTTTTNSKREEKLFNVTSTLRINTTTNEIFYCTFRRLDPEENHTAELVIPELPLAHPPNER
binder,measurement,setting,value
B1,"average IL-2 concentration in human PBMC-derived T cells (PHA-L-treated, OKT3-coated plate), 1 µg/ml antibody",[1],1700
same,"average IL-2 concentration, SEB-treated human PBMC, 1 µg/ml antibody",[1],16.5 ng/mL
same,"average IL-2 concentration in human PBMC-derived T cells (PHA-L-treated, OKT3-coated plate), 1 µg/ml antibody",[2],1700
same,"average IL-2 concentration, SEB-treated human PBMC, 1 µg/ml antibody",[2],16.5 ng/mL
B2,"average relative luciferase unit (RLU) in JD/OX40 cells, 1 µg/ml antibody, with NS0/CD33 cells",[1],8700 RLU
same,"average relative luciferase unit (RLU) in JD/OX40 cells, 1 µg/ml antibody, with NS0/PD-L1 cells",[1],5920 RLU
B3,binding result,[3],binds
same,binding result,[4],binds
B4,"average relative luciferase unit (RLU) in JD/OX40 cells, 1 µg/ml antibody, with NS0/PD-L1 cells",[5],23700 RLU
same,"average IL-2 concentration in human PBMC-derived T cells (PHA-L-treated, OKT3-coated plate), 1 µg/ml antibody",[1],2200
same,"average IL-2 concentration, SEB-treated human PBMC, 1 µg/ml antibody",[1],17.7 ng/mL
same,"average relative luciferase unit (RLU) in JD/OX40 cells, 1 µg/ml antibody, with NS0/PD-L1 cells",[1],23700 RLU
same,"average IL-2 concentration in human PBMC-derived T cells (PHA-L-treated, OKT3-coated plate), 1 µg/ml antibody",[2],2200
same,"average IL-2 concentration, SEB-treated human PBMC, 1 µg/ml antibody",[2],17.7 ng/mL
B5,"average relative luciferase unit (RLU) in the culture supernatants of JD/GITR cells, 1 µg/ml antibody, with NS0/PD-L1 cells",[5],1.04e+06 RLU
same,"average IL-2 concentration in PBMC-derived T cells of donor 4143, 1 µg/ml antibody",[6],4200 pg/mL
same,"average relative luciferase unit (RLU) in the culture supernatants of JD/GITR cells, 1 µg/ml antibody, with NS0/PD-L1 cells",[6],1.04e+06 RLU
same,"average IL-2 concentration in PBMC-derived T cells of donor 4143, 1 µg/ml antibody",[2],4200 pg/mL
B6,binding result,[7],no binding
B7,IC50,[8],0.087 µg/mL
B8,IC50,[8],0.055 µg/mL
B9,"percentage of CD95-positive population among Ramos cells, 0.5 µg/ml antibody, in the presence of HL-60 cells",[9],58.4%
same,"percentage of CD95-positive population among Ramos cells, 0.5 µg/ml antibody, in the presence of HL-60 cells",[10],58.4%
B10,"average relative luciferase unit (RLU) in JD/OX40 cells, 1 µg/ml antibody, with NS0/CD33 cells",[1],21700 RLU
same,"average relative luciferase unit (RLU) in JD/OX40 cells, 1 µg/ml antibody, with NS0/CD33 cells",[11],21700 RLU
B11,"average IL-2 concentration in PBMC-derived T cells of donor 4143, 1 µg/ml antibody",[2],1450 pg/mL
same,IC50,[8],0.106 µg/mL
B12,"percentage of CD95-positive population among Ramos cells, 0.5 µg/ml antibody, in the presence of HL-60 cells",[10],0.7%
